Experimental data published in patent publication US12428627B2, “Mutant p-hydroxyphenylpyruvate dioxygenase, and coding nucleic acid and use thereof” (Qingdao Kingagroot Chemical Compound Co., Ltd., priority 2018, dated 2025).

How the values were obtained:
OsHPPD = experiment: HPPD enzyme activity assay: Km, Kcat and Kcat/Km of OsHPPDs; format: biochemical, Oryza sativa; conditions: substrate 4-HPP
Procedure: The rice OsHPPD protein and homogentisate 1,2-dioxygenase (HGD) were obtained by heterologously expressed in E. coli wherein the gene was inserted into the pET 15b expression vector and expressed in the BL21 (DE3) expression strain, and purified by the Ni-NTA resin. • (1) The HPPD open reading frame (ORF) of the positive clone was cloned into the pET-15b vector to form a 6His-HPPD expression vector, and transformed into the BL21 (DE3) cell. The expression strain was inoculated in 10 mL of 2×YT culture medium, and cultivated overnight on a shaker at 37° C. and 200 rpm. The 10 mL of the culture was inoculated in 1 L of 2×YT culture medium and cultivated until the OD600 reached 0.6-0.8, cooled to a temperature of 16° C., and subjected to induced-expression with 0.2 mM IPTG (isopropyl thiogalactoside) overnight. The strains were collected by centrifugation at 2800×g. • (2) The collected strains were re-suspended with the buffer A (50 mM Tris pH 8.0, 500 mM NaCl, 20 mM imidazole), to which PMSF (phenylmethanesulfonyl fluoride) at the final concentration of 1 mM and 250 μL of a protease inhibitor cocktail (i.e., a mixture of multiple protease inhibitors), and mixed. The cells were broken by ultrasound in ice-bath (40% total power, work for 3 seconds/6 seconds interval, 2×30 minutes (Ningbo Scientz Biotechnology Co., Ltd., Ningbo, China)), and centrifuged at 12000 rpm at 4° C. for 30 minutes; and the supernatant was filtered with a 0.22 μm filter membrane. • (3) Purification with the Ni-NTA column: the supernatant was in contact with the Ni-NTA resin, then rinsed with a buffer A containing 50 mM imidazole to remove the impurities, and finally, eluted with an elution buffer containing 400 mM imidazole. • (4) The approximate purity of the protein of interest was analyzed by SDS-PAGE. The eluates containing of the protein of interest were combined and concentrated by an ultrafiltration device (10 kDa molecular weight cut-off, Amicon Ultra). The solution was replaced with a solution containing 20 mM Tris-HCl and having a pH of 7.5 for at least 3 times to desalt. The total protein concentration was determined by the BCA method.
• 1. The activity of a HPPD enzyme was determined by detecting the conversion of 4-hydroxyphenylpyruvate (4-HPP) to homogentisic acid (HGA) catalyzed by the HPPD enzyme and the conversion of HGA to maleylacetoacetate (MAA) catalyzed by homogentisate dioxygenase. […] 6 μl of 4-hydroxyphenylpyruvate (4-HPP) having a concentration that was as 50 times as the final concentration of the substrate were added to an ELSA plate, and then 294 μL of hydroxyethylpiperazine ethanesulfonic acid (HEPES) with a final concentration of 25 mM and pH of 7, 2 mM of Vitamin C, 10 mM FeSO4, 50 nM homogentisate dioxygenase and 5 to 240 nM HPPD enzyme were added thereto at one time. The final concentration of reaction substrate 4-HPP usually ranged from 1 to 100 μM. • 3. The absorbance changes of the reaction wells at 318 nm were continuously monitored by a UV ELISA detector (ReadMax 1900 photoabsorption type full-wavelength microplate reader) (Shanghai). • 4. Determination of Km, Kcat and Kcat/Km of OsHPPDs
Vmax is the maximum catalytic reaction rate achievable by enzymatic catalysis. The Michaelis constant Km is the concentration of a substrate required when the enzyme catalyzed the reaction to achieve half of the maximum rate (Vmax). The Km value is a constant and independent of the enzyme concentration, and altered as substrate type, reaction temperature, pH, and ionic strength changed. […] is a catalytic constant of an enzyme and referred to the number of substrate molecules that could be catalyzed by an enzyme molecule or enzyme active center per second. KCat/Km represents the catalytic efficiency of enzyme. It could be seen from the data in the table that the catalytic efficiency of most HPPD mutants was enhanced.

[1] = system: transgenic rice (Zhonghua 11); experiment: Herbicide resistance of transgenic rice seedlings (T0) on medium containing tembotrione; format: in vivo; conditions: T0 transgenic seedlings overexpressing the mutant, differentiation medium
From the text: • 1. Construction of overexpression vector • 1) Primers: primers were designed according to the selected restriction sites and the nucleotide sequence of the gene itself to amplify the three-site mutant HPPD (H141R/G342D/D370N) (OsHPPD3M). The designed primers were synthesized by Beijing Qingke Biotechnology Co., Ltd.: HPPD-F, […] ATGCCTCCCACT CCCACCC, HPPD-R, […] GGC. • 2) PCR amplification: the gene of interest was amplified by using the synthesized primer and Q5 DNA polymerase (NEB, New England Biolabs, Boston, USA). The amplified product was assayed by agarose gel electrophoresis, and the product was recovered according to operational instructions of the TIANquick Midi Purification kit. After the completion of the recovery, the concentration of extracted DNA was determined by Nanodrop. • 3) Construction of a rice overexpression vector: the rice overexpression vector pCAMBIA1301-OsHPPD3M was constructed with the recovered HPPD fragments and plasmid pCAMBIA1301 digested by KpnI and HindIII by using the HB-in Fusions™ seamless cloning kit of HanBio Biotechnology Co., Ltd., (Shanghai), and then transformed into the competent E. coli DH5α to obtain a positive clone; the positive clone was transformed into Agrobacterium after sequencing and restriction endonuclease digestion. • 2. […]

B1: H141R/G342D/D370N: three-site mutant rice HPPD (OsHPPD3M) (protein, listed as Oryza sativa)
chain: MPPTPTPTATTGAVSAAAAAGENAGFRLVGHRRFVRANPRSDRFQALAFHHVELWCADAASAAGRFAFALGAPLAARSDLSTGNSAHASLLLRSASVAFLFTAPYGGDHGVGADAATTASIPSFSPGAARRFAADHGLAVRAVALRVADAADAFRASVAAGARPAFQPADLGGGFGLAEVELYGDVVLRFVSHPDGADAPFLPGFEGVSNPGAVDYGLRRFDHVVGNVPELAPVAAYISGFTGFHEFAEFTAEDVGTAESGLNSVVLANNAETVLLPLNEPVHGTKRRSQIQTYLDHHGGPGVQHIALASDDVLGTLREMRARSAMGGFEFLAPPPPNYYDDVRRRAGDVLSEEQINECQELGVLVDRDNQGVLLQIFTKPVGDRPTFFLEMIQRIGCMEKDESGQEYQKGGCGGFGKGNFSELFKSIEEYEKSLEAKQAPTVQGS
modifications: The amino acid sequence of Wild-Type rice HPPD protein (OsHPPD _WT)
In the case of B1, the Km (OsHPPD) is reported as 10.9 µM and the “tembotrione concentration in culture medium tolerated (remains green)” value [1] is reported as 3 µM.
